Tests used:
[1] = molecular target: T1, mouse LTBP1-proTGFβ1 complex (mouse, UniProt Q8CG19 339-1712; P04202 30-390); assay: cell-based or functional assay
[2] = molecular target: LTBP-proTGFβ1: transfected human proTGFβ1 presented by endogenous LTBP1/3 of LN229 cells (human); assay: cell-based or functional assay
[3] = molecular target: T1, mouse LTBP1-proTGFβ1 complex; assay: Octet BLI, IgG captured
Method: (§1) Binding affinities of the optimized antibodies were measured by Octet against human LTBP1-proTGFβ1, human LTBP3-proTGFβ1, mouse LTBP1-proTGFβ1, mouse LTBP3-proTGFβ1, and GARP-proTGFβ1 complexes, essentially as described in Example 6. […] The antigens were allowed to associate for 3 minutes followed by a 5-minute dissociation. Kinetics buffer (ForteBio®) was used throughout the experiment, and KD was determined using a 1:1 fitting model for each antibody antigen pair.

[4] = molecular target: T2, human LTBP1-proTGFβ1 complex (human, UniProt Q14766 347-1721; P01137 30-390); assay: Octet BLI, IgG captured
T2 construct: Large latent complex: one presenting molecule disulfide-linked to a proTGFβ1 dimer; also called Hu LTBP1-proTGFβ1; huLTBP1 proTGFβ1
T2 sequence (Q14766 347-1721 limits assumed, chain 1 of 2): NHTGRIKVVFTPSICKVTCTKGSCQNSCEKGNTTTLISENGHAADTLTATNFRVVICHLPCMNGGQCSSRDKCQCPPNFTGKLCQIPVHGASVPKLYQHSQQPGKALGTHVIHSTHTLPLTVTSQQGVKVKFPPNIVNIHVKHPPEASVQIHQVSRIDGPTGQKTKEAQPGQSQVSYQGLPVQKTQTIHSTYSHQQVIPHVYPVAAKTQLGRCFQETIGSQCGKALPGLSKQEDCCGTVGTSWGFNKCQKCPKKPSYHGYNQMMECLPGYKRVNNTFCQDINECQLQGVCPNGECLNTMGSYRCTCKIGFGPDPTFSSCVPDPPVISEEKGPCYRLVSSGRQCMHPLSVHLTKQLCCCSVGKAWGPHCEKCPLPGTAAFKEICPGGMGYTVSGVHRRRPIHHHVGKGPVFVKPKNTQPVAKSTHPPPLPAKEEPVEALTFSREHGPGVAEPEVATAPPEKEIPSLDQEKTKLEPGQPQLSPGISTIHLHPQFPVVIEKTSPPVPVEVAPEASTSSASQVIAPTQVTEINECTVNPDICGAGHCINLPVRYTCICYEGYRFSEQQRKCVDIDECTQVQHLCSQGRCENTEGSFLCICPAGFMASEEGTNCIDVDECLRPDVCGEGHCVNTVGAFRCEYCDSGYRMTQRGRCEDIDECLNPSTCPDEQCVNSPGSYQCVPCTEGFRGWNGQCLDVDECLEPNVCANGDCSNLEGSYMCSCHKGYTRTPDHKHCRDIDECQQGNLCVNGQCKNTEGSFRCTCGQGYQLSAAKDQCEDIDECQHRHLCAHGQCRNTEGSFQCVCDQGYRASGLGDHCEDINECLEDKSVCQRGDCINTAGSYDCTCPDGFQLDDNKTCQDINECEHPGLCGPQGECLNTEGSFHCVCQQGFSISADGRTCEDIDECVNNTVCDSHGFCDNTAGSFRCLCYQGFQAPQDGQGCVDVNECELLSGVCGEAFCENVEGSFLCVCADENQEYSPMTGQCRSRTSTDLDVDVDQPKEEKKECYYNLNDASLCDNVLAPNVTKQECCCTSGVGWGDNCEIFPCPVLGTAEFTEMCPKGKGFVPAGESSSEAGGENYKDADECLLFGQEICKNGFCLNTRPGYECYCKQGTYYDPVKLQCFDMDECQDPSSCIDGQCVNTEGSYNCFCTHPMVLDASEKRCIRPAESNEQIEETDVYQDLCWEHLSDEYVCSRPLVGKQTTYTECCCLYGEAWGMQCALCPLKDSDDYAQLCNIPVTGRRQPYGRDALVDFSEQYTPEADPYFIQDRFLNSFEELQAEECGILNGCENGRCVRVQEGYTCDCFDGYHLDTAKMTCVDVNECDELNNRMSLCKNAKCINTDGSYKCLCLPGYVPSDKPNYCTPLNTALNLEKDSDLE
T2 sequence (P01137 30-390 limits assumed, chain 2 of 2): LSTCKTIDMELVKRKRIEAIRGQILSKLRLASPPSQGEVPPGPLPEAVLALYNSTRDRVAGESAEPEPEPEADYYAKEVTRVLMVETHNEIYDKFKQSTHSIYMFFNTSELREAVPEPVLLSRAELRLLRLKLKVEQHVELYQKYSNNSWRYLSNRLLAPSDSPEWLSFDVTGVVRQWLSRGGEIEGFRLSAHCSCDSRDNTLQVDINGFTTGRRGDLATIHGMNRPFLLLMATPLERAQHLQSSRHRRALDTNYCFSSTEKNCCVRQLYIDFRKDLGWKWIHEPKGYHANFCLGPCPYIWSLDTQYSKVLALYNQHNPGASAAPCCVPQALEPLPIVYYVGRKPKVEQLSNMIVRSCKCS
Method: as §1

[5] = molecular target: T3, human LTBP3-proTGFβ1 complex (human, UniProt Q9NS15 44-1303; P01137 30-390, limits assumed); assay: Octet BLI, IgG captured
T3 construct: Exemplary entries; also called Hu LTBP3-proTGFβ1; huLTBP3 proTGFb1
T3 sequence (Q9NS15 44-1303 limits assumed, chain 1 of 2): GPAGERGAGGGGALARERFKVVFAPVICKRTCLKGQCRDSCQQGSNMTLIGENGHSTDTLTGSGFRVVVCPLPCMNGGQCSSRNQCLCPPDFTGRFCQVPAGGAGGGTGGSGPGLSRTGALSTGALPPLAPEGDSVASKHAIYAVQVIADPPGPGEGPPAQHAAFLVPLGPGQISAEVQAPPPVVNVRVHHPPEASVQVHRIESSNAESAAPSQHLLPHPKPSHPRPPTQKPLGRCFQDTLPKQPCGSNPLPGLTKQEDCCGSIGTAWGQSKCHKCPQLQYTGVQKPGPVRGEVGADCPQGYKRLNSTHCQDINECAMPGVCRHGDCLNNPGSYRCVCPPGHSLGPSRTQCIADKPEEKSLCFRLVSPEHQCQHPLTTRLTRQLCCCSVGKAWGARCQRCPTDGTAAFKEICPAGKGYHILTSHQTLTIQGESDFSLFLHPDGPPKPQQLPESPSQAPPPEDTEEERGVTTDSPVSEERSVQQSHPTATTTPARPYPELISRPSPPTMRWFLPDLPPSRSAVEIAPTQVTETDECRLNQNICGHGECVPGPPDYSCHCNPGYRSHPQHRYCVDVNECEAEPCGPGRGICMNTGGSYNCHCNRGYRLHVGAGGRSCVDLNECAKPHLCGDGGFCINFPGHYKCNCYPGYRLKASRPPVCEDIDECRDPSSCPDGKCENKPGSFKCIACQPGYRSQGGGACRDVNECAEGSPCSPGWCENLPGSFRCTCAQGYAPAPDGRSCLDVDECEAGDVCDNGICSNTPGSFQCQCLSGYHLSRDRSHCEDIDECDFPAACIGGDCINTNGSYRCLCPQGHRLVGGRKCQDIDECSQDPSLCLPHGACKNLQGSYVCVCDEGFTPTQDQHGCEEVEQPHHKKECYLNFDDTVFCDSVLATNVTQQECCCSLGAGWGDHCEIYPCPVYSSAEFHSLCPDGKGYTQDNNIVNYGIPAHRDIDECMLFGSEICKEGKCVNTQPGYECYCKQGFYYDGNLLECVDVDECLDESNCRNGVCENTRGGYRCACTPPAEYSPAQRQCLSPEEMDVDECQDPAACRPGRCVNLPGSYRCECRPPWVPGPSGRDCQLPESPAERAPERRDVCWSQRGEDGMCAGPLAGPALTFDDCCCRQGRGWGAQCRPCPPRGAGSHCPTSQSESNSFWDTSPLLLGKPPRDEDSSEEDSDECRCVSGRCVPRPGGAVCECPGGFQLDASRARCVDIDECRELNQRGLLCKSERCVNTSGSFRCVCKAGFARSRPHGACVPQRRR
T3 sequence (P01137 30-390 limits assumed, chain 2 of 2): as the sequence (P01137 30-390 limits assumed, chain 2 of 2) above
Method: as §1

[6] = molecular target: T4, mouse LTBP3-proTGFβ1 complex (mouse, UniProt Q61810 41-1245; P04202 30-390, limits assumed); assay: Octet BLI, IgG captured
T4 construct: Exemplary entries; also called Mo LTBP3-proTGFβ1; Murine LTBP3 proTGFb1
Method: as §1

[7] = molecular target: T2, human LTBP1-proTGFβ1 complex; assay: SPR Biacore 8K, Fab over captured antigen
Method: A Biacore 8K system was employed to determine the monovalent binding affinity and the kinetic parameters for antigen binding of test antibodies. Association and dissociation kinetics of Fab fragments SR-AB42-HuFab, SR-AB63-HuFab and SR-AB43-HuFab to antigen complexes were measured, and resulting ka, kd and KD are provided below. Briefly, the binding kinetics were evaluated by surface plasmon resonance using Biacore 8K (GE Healthcare). Biotinylated capture antigens were immobilized to the chip (10 nM, ˜200 RU loading). A Biotin CAPture sensor chip was used to capture the biotinylated antigens. […] 0 nM was used as a reference. […] 0 nM was used as a reference. Multi-cycle kinetics was employed where each analyte concentration was injected in a separate cycle and the sensor chip surface was regenerated after each cycle. A11 the assays were carried out in freshly prepared 1× HBS-EP+ buffer (10 mM HEPES, 150 mM NaCl, 3 mM EDTA, 0.05% Tween20, pH 7.4). Data were fit globally to a 1:1 binding model to obtain the kinetic parameters. The sensorgram for 0 nM analyte concentration was used as reference.

T1 sequence (Q8CG19 339-1712 limits assumed, chain 1 of 2): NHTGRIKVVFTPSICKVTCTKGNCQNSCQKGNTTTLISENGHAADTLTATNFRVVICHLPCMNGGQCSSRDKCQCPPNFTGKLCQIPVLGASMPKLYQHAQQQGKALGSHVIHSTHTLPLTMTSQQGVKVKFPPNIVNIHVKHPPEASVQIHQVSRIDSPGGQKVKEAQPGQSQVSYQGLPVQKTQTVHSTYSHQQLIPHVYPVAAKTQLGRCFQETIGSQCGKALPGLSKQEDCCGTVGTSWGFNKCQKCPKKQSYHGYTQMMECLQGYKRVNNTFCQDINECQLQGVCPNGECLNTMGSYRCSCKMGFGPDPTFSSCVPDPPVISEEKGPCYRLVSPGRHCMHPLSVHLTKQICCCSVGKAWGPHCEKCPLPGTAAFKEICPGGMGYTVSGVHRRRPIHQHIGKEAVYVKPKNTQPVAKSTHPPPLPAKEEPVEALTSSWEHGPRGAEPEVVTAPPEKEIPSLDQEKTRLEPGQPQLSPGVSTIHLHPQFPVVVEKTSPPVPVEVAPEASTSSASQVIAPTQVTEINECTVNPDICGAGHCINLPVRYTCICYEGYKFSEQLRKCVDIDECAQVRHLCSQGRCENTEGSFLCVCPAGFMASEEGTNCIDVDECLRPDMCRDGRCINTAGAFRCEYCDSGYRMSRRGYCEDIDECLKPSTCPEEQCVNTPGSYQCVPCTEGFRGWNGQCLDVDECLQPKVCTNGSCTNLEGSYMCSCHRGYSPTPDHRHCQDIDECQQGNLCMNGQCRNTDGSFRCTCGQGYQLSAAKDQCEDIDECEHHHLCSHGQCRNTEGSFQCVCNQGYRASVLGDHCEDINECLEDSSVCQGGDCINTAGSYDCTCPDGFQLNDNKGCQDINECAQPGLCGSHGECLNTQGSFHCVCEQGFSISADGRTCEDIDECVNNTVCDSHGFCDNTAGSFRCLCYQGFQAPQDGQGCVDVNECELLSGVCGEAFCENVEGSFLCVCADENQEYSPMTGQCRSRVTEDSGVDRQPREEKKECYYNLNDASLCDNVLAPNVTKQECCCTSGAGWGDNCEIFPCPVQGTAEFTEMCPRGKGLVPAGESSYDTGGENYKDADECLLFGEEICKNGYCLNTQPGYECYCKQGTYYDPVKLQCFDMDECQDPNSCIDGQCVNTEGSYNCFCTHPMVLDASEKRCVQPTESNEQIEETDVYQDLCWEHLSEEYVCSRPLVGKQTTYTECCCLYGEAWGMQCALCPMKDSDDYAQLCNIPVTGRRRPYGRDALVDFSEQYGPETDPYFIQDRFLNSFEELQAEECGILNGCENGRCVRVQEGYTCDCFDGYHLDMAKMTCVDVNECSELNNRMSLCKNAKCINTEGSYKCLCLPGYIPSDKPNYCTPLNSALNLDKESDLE
T1 sequence (P04202 30-390 limits assumed, chain 2 of 2): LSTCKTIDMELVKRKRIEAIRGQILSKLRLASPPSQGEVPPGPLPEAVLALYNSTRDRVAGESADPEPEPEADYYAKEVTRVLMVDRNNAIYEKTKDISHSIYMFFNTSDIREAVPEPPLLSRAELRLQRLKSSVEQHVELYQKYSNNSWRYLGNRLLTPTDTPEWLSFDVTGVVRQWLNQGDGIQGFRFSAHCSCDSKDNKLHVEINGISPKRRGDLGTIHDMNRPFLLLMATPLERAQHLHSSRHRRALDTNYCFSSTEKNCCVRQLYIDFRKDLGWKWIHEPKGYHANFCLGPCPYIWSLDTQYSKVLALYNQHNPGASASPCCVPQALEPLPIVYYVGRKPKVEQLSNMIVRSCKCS
Chain of LTBP-proTGFβ1: transfected human proTGFβ1 presented by endogenous LTBP1/3 of LN229 cells (human) (P01137 30-390): as the sequence (P01137 30-390 limits assumed, chain 2 of 2) above

B1: SR-AB42 (antibody, IgG1, V domains shown)
VH: QVQLVESGGGVVQPGRSLRLSCAASGFTFRSYVMHWVRQAPGKGLEWVAVISHEGSLKYYADSVKGRFTISRDNSKNTLYLQMNSLRAEDTAVYYCARPRIAARRGGFGYWGQGTLVTVSS
VL: NFMLTQPHSVSESPGKTVTISCTRSSGNIDNNYVQWYQQRPGSSPTTVIYEDNQRPSGVPDRFSGSIDSSSNSASLTISGLKTEDEADYYCQSYDYDTQGVVFGGGTKLTVL
notes: Cycle 3, lineage SR-AB23
[1]
  IC50, mLTBP1 assay (CAGA12 luciferase): 0.271 nM
[2]
  IC50, endogenous hLTBP assay (CAGA12 luciferase): 1.43 nM
[3]
  Kd: 0.359 nM
[4]
  Kd: 0.389 nM
  koff: 6e-05 s⁻¹
  kon: 154000 M⁻¹ s⁻¹
[5]
  Kd: 0.259 nM
  koff: 6e-05 s⁻¹
  kon: 232000 M⁻¹ s⁻¹
[6]
  Kd: 1.05 nM

B2: SR-AB55-HuFab (Fab, V domains shown)
VH: QVQLVESGGGVVQPGRSLRLSCAASGFTFRSYVMHWVRQAPGKGLEWVAVISHEGSGKYYADSVKGRFTISRDNSKNTLYLQMNSLRAEDTAVYYCALPRIAARRGGFGSWGQGTLVTVSS
VL: NFMLTQPHSVSESPGKTVTISCTRSSGNIDYNYVQWYQQRPGSSPTTVIYEDNVRPSGVPDRFSGSIDSSSNSASLTISGLKTEDEADYYCQSYDYDNQAVVFGGGTKLTVL
notes: Human Fab; also called SR-AB55 Fab
[7]
  Kd: 0.131 nM
  koff: 0.000113 s⁻¹
  kon: 862000 M⁻¹ s⁻¹

B3: SR-AB56-HuFab (Fab, V domains shown)
VH: QVQLVESGGGVVQPGRSLRLSCAASGFTFRSYVMHWVRQAPGKGLEWVAVISHEGSGKYYADSVKGRFTISRDNSKNTLYLQMNSLRAEDTAVYYCALPRIAARRGGFGSWGQGTLVTVSS
VL: NFMLTQPHSVSESPGKTVTISCTRSSGNIDYNYVQWYQQRPGSSPTTVIYEDNVRPSGVPDRFSGSIDSSSNSASLTISGLKTEDEADYYCQSYDYDTQGVVFGGGTKLTVL
notes: Human Fab; also called SR-Ab56 Fab
[7]
  Kd: 0.0489 nM
  koff: 0.000126 s⁻¹
  kon: 2.58e+06 M⁻¹ s⁻¹

B4: SR-AB53-HuFab (Fab, V domains shown)
VH: QVQLVESGGGVVQPGRSLRLSCAASGFTFRSYVMHWVRQAPGKGLEWVAVISHEGSGKYYADSVKGRFTISRDNSKNTLYLQMNSLRAEDTAVYYCARPRIAARRGGFGTWGQGTLVTVSS
VL: NFMLTQPHSVSESPGKTVTISCTRSSGNIDYNYVQWYQQRPGSSPTTVIYEDNVRPSGVPDRFSGSIDSSSNSASLTISGLKTEDEADYYCQGYDWDTQGVVFGGGTKLTVL
notes: Human Fab; also called SR-AB53 Fab
[7]
  Kd: 0.0707 nM
  koff: 0.000128 s⁻¹
  kon: 1.82e+06 M⁻¹ s⁻¹

B5: SR-AB59-HuFab (Fab, V domains shown)
VH: QVQLVESGGGVVQPGRSLRLSCAASGFTFRSYVMHWVRQAPGKGLEWVAVISHEGSGKYYADSVKGRFTISRDNSKNTLYLQMNSLRAEDTAVYYCALPRIAARRGGFGTWGQGTLVTVSS
VL: NFMLTQPHSVSESPGKTVTISCTRSSGNIDYNYVQWYQQRPGSSPTTVIYEDNVRPSGVPDRFSGSIDSSSNSASLTISGLKTEDEADYYCQSYDYDNQAVVFGGGTKLTVL
notes: Human Fab; also called SR-AB59 Fab
[7]
  Kd: 0.0509 nM
  koff: 0.00013 s⁻¹
  kon: 2.55e+06 M⁻¹ s⁻¹

B6: SR-AB58-HuFab (Fab, V domains shown)
VH: QVQLVESGGGVVQPGRSLRLSCAASGFTFRSYVMHWVRQAPGKGLEWVAVISHEGSGKYYADSVKGRFTISRDNSKNTLYLQMNSLRAEDTAVYYCALPRIAARRGGFGTWGQGTLVTVSS
VL: NFMLTQPHSVSESPGKTVTISCTRSSGNIDYNYVQWYQQRPGSSPTTVIYEDNVRPSGVPDRFSGSIDSSSNSASLTISGLKTEDEADYYCQSYDSDNQRVVFGGGTKLTVL
notes: Human Fab; also called SR-AB58 Fab
[7]
  Kd: 0.0521 nM
  koff: 0.000162 s⁻¹
  kon: 3.11e+06 M⁻¹ s⁻¹

B7: SR-AB61-HuFab (Fab, V domains shown)
VH: QVQLVESGGGVVQPGRSLRLSCAASGFTFRSYVMHWVRQAPGKGLEWVAVISHEGSGKYYADSVKGRFTISRDNSKNTLYLQMNSLRAEDTAVYYCALPRIAARRGGFGTWGQGTLVTVSS
VL: NFMLTQPHSVSESPGKTVTISCTRSSGNIDYNYVQWYQQRPGSSPTTVIYEDNVRPSGVPDRFSGSIDSSSNSASLTISGLKTEDEADYYCQGYDWDTQGVVFGGGTKLTVL
notes: Human Fab; also called SR-AB61 Fab
[7]
  Kd: 0.132 nM
  koff: 0.000155 s⁻¹
  kon: 1.17e+06 M⁻¹ s⁻¹

B8: SR-AB60-HuFab (Fab, V domains shown)
VH: QVQLVESGGGVVQPGRSLRLSCAASGFTFRSYVMHWVRQAPGKGLEWVAVISHEGSGKYYADSVKGRFTISRDNSKNTLYLQMNSLRAEDTAVYYCALPRIAARRGGFGTWGQGTLVTVSS
VL: NFMLTQPHSVSESPGKTVTISCTRSSGNIDYNYVQWYQQRPGSSPTTVIYEDNVRPSGVPDRFSGSIDSSSNSASLTISGLKTEDEADYYCQSYDYDTQGVVFGGGTKLTVL
notes: Human Fab; also called SR-AB60 Fab
[7]
  Kd: 0.051 nM
  koff: 0.00012 s⁻¹
  kon: 2.35e+06 M⁻¹ s⁻¹

B9: SR-AB57-HuFab (Fab, V domains shown)
VH: QVQLVESGGGVVQPGRSLRLSCAASGFTFRSYVMHWVRQAPGKGLEWVAVISHEGSGKYYADSVKGRFTISRDNSKNTLYLQMNSLRAEDTAVYYCALPRIAARRGGFGSWGQGTLVTVSS
VL: NFMLTQPHSVSESPGKTVTISCTRSSGNIDYNYVQWYQQRPGSSPTTVIYEDNVRPSGVPDRFSGSIDSSSNSASLTISGLKTEDEADYYCQGYDWDTQGVVFGGGTKLTVL
notes: Human Fab; also called SR-AB57 Fab
[7]
  Kd: 0.133 nM
  koff: 0.000181 s⁻¹
  kon: 1.35e+06 M⁻¹ s⁻¹

B10: SR-AB52-HuFab (Fab, V domains shown)
VH: QVQLVESGGGVVQPGRSLRLSCAASGFTFRSYVMHWVRQAPGKGLEWVAVISHEGSGKYYADSVKGRFTISRDNSKNTLYLQMNSLRAEDTAVYYCARPRIAARRGGFGTWGQGTLVTVSS
VL: NFMLTQPHSVSESPGKTVTISCTRSSGNIDYNYVQWYQQRPGSSPTTVIYEDNVRPSGVPDRFSGSIDSSSNSASLTISGLKTEDEADYYCQSYDYDTQGVVFGGGTKLTVL
notes: Human Fab; also called SR-AB52 Fab
[7]
  Kd: 0.0396 nM
  koff: 9.91e-05 s⁻¹
  kon: 2.5e+06 M⁻¹ s⁻¹

B11: SR-AB54-HuFab (Fab, V domains shown)
VH: QVQLVESGGGVVQPGRSLRLSCAASGFTFRSYVMHWVRQAPGKGLEWVAVISHEGSGKYYADSVKGRFTISRDNSKNTLYLQMNSLRAEDTAVYYCALPRIAARRGGFGSWGQGTLVTVSS
VL: NFMLTQPHSVSESPGKTVTISCTRSSGNIDYNYVQWYQQRPGSSPTTVIYEDNVRPSGVPDRFSGSIDSSSNSASLTISGLKTEDEADYYCQSYDSDNQRVVFGGGTKLTVL
notes: Human Fab; also called SR-AB54 Fab
[7]
  Kd: 0.0491 nM
  koff: 8.83e-05 s⁻¹
  kon: 1.8e+06 M⁻¹ s⁻¹

B12: SR-AB48-HuFab (Fab, V domains shown)
VH: QVQLVESGGGVVQPGRSLRLSCAASGFTFRSYVMHWVRQAPGKGLEWVAVISHEGSGKYYADSVKGRFTISRDNSKNTLYLQMNSLRAEDTAVYYCARPRIAARRGGFGSWGQGTLVTVSS
VL: NFMLTQPHSVSESPGKTVTISCTRSSGNIDYNYVQWYQQRPGSSPTTVIYEDNVRPSGVPDRFSGSIDSSSNSASLTISGLKTEDEADYYCQSYDYDTQGVVFGGGTKLTVL
notes: Human Fab; also called SR-AB48 Fab
[7]
  Kd: 0.0593 nM
  koff: 0.000104 s⁻¹
  kon: 1.76e+06 M⁻¹ s⁻¹

B13: SR-AB51-HuFab (Fab, V domains shown)
VH: QVQLVESGGGVVQPGRSLRLSCAASGFTFRSYVMHWVRQAPGKGLEWVAVISHEGSGKYYADSVKGRFTISRDNSKNTLYLQMNSLRAEDTAVYYCARPRIAARRGGFGTWGQGTLVTVSS
VL: NFMLTQPHSVSESPGKTVTISCTRSSGNIDYNYVQWYQQRPGSSPTTVIYEDNVRPSGVPDRFSGSIDSSSNSASLTISGLKTEDEADYYCQSYDYDNQAVVFGGGTKLTVL
notes: Human Fab; also called SR-AB51 Fab
[7]
  Kd: 0.0589 nM
  koff: 0.00015 s⁻¹
  kon: 2.55e+06 M⁻¹ s⁻¹

B14: SR-AB50-HuFab (Fab, V domains shown)
VH: QVQLVESGGGVVQPGRSLRLSCAASGFTFRSYVMHWVRQAPGKGLEWVAVISHEGSGKYYADSVKGRFTISRDNSKNTLYLQMNSLRAEDTAVYYCARPRIAARRGGFGTWGQGTLVTVSS
VL: NFMLTQPHSVSESPGKTVTISCTRSSGNIDYNYVQWYQQRPGSSPTTVIYEDNVRPSGVPDRFSGSIDSSSNSASLTISGLKTEDEADYYCQSYDSDNQRVVFGGGTKLTVL
notes: Human Fab; also called SR-AB50 Fab
[7]
  Kd: 0.055 nM
  koff: 0.000182 s⁻¹
  kon: 3.31e+06 M⁻¹ s⁻¹

B15: SR-AB46-HuFab (Fab, V domains shown)
VH: QVQLVESGGGVVQPGRSLRLSCAASGFTFRSYVMHWVRQAPGKGLEWVAVISHEGSGKYYADSVKGRFTISRDNSKNTLYLQMNSLRAEDTAVYYCARPRIAARRGGFGSWGQGTLVTVSS
VL: NFMLTQPHSVSESPGKTVTISCTRSSGNIDYNYVQWYQQRPGSSPTTVIYEDNVRPSGVPDRFSGSIDSSSNSASLTISGLKTEDEADYYCQSYDSDNQRVVFGGGTKLTVL
notes: Human Fab; also called SR-AB46 Fab
[7]
  Kd: 0.0444 nM
  koff: 0.00011 s⁻¹
  kon: 2.47e+06 M⁻¹ s⁻¹

From patent US20220064276A1 (SCHOLAR ROCK, published 2022)
